Test results: article PMC7094300 (Febs Letters, 2006)

Biological target: the molecule itself
Test: small-angle X-ray scattering + cross-linking + other: enzyme kinetics

B1: SARS CoV main proteinase (enzyme)
chain: SGFRKMAFPSGKVEGCMVQVTCGTTTLNGLWLDDTVYCPRHVICTAEDMLNPNYEDLLIRKSNHSFLVQAGNVQLRVIGHSMQNCLLRLKVDTSNPKTPKYKFVRIQPGQTFSVLACYNGSPSGVYQCAMRPNHTIKGSFLNGSCGSVGFNIDYDCVSFCYMHHMELPTGVHAGTDLEGKFYGPFVDRQTAQAAGTDTTITLNVLAWLYAAVINGDRWFLNRFTTTLNDFNLVAMKYNYEPLTQDHVDILGPLSAQTGIAVLDMCAALKELLQNGMNGRTILGSTILEDEFTPFDVVRQCSGVTFQ
- stoichiometry N: 2
